The DeepSol protein solubility set

Experiment: soluble on expression in E. coli; label from the status in PepcDB or PDB records

Sequence	soluble on expression in E. coli
EVQLVESGGDLVKPGGSLKLSCAASGFTFSSYGMSWIRQTPDKRLEWVATISSGGSYTYYPDSVKGRFTISRDNAKNTLYLQMSSLKSEDTAMFYCARQTTMTYFAYWGQGTLVTVSAAKTTPPSVYPLAPGSAAQTNSMVTLGCLVKGYFPEPVTVTWNSGSLSSGVHTFPAVLQSDLYTLSSSVTVPSSPRPSETVTCNVAHPASSTKVDKKIEPA	soluble
EVVRLGDVLELCQYGLSVPLKDKGKYPVIRMDEIVNGYVVTDIAKYADLDEETFKNFKLEKGDVLFNRTNSLELVGRTGIFLLDGYYVFASYLIRLRPKHEILHPHFLTFYLIFSQSRLKQLATVAVHQANINATNLKKFKIPLPPLPEQQKIAEILSTV	soluble
EVVVIGYGTAKRKDITGSVATVNAEALTVVPVASATEALTGKMAGVQITTTEGSPDAEMKIRVRGGGSITGDNTPLFIVDGFPVESISDIPASDIEDMTVLKDASSTAIYGSRGANGVILVTTKSGK	not soluble
EVYALEESRDVYLSDLDWLNATHGDDTKSKIVQKNHPFTPGNNNQSTKISLKMEDGSISEFEKGLGTIAGSPSTITYDISGAGVTKFFSYLGIDRSANPINEQYAKVDKIEVVVDGKVIYSTINQFPNGLTYETPAIKVDLNIPENAKRLQLKSYAGEKTWGDEVVYADAKFTAKGDFVN	soluble
EWVAPTLSQKAENIKAAAINGKISTGNTGLWLKEKNSIINVREMLPDHTLLGIKIWARNDKNELAEAVEADSAVLNSDGSWQLKNIRRSTLGEDKVEVSIAAEENWPISVKRNLMDVLLVKPDQMSVGELTTYIRHLQNNSQNTRIYAIAWWRK	not soluble
EYSYQYNLRVEPGVSHQRANIGIDYQGMDWIIGPNYTAEQARIILRLDDQTRYVLQPEKRHYPVRVMNMTEPAILSLWHGDYYLTLGDKVGTNAYAIKVQ	not soluble
FAVSSELSACGRARTYRVEGQLFYGSVEDFMAAFDFREPLERVTIDVSRAHIWDISSVQALDMAVLKFRREGAEVRIVGMNEASETLVDRLALHDRPGALDRLTAH	not soluble
FCKELPRPELPYSEMSAIGSLIQALPASCALHLANSSAVRYAQLYSLPDTVEVCCNRGTSGIEGSLSTAIGYAAASKKLNFVVIGDLSFFYDMNALWNNHFGSNLRILLLNNGGGEIFHTLPGLEMSGTSHRFVTAVHKTSAKGWAEERGFLYQEVQDEKQLDEAMKTFTQPELLTQPVIMEVFTNKNKDARILKDYYHQLKN	not soluble
FDIALTGREGKKIGAAFIVGDSEEVLKRSHQIILNPYEGHEEAHRNILDRRNWESIKEFALLDGVFVIDETGIVRAAGRYLDVDGKNIDIEKGLGGRHVSAAAISRDTVAISVTVSESGGVLRVYKDAKETICMESLQPASRYV	not soluble
FFSNAEVAERLAYPQLIEALRIGLAKPCSAPLRNCHALPAQASLLQMPVWQAGAGIGVKLVTVFPGNGARGLPAVAAVFALFDGEDGRPLALLEASELTARRTACSSALAADYLARDDARRLLVVGCGTLAAHMVRAHACVRDYRHIDIWGRDPAKAAALAARLREEGYPARAADGLRAAVEAADCVSCVTTSREALVRGAWLKPGVHLDLVGAFLPSMRETDVLAVARARVVVDTRAGALEEAGDLLQAIAEGAIGREAISTELRDLLSGAGRRGDPGEITLFKSVGYALEDLVAARRVV	not soluble
FHPHTKGSQILMDLSHKAVKRQASFCNAITFSNRPVLIYEQVRLKITKKQCCWSGALRLGFTSKD	not soluble
FLNTISTKDFKQKMADKTTGFVYVGRPTCEDCQAFQPILKKELEKRQPDQKMAYYNTDKASEKSRDDMIALLKKMDIDSVPTMVYLKDGKVASTYAATDEPAKLTNWMNKVSG	not soluble
FNHPASAPYIQELATICQQLAQRLQRPVRLLEVGTRTGRAAESLLAQLNAGQIEYVGLEQSQEMLLSARQRLAPWPGARLSLWNADTLAAHAHSADIIWLNNALHRLLPEDPGLLATLQQLAVPGALLYVMEFRQLTPSALLSTLLLTNGQPEALLHNSADWAALFSAAGFNCQH	not soluble
FNKELDPVQKLFVDKIREYRTKRQTSGGPVDAGPEYQQDLDRELFKLKQMYGKADMNTFPNFTFEDPKFEVVEKPQS	soluble
FRKIAQAYNLDLLVHHANAQLKQLVRRYRLKRGGSMLGLLVMDTEMGDELRSVHSLSGGETFLVSLALALGLASMASSTLRIESLFIDEGFGSLDPESLQLAMDALDGLQAQGRKVGVISHVQEMHERIPVQIRVRRQGNGLSTI	not soluble
FTSNKDERRWMVQCGSFRGAEQAETVRAQLAFEGFDSKITTNNGWNRVVIGPVKGKENADSTLNRLKMAGHTNCIRLAAGG	soluble
FYHDYTVTQDELLKDSSDALKKEFLKILDKAIKRLILMANGDTIVIPLSGGYDSRAIATMLKKNGYENVILYTYGKPDSTEVRVAREVAKNLEFEWIFVEQNEDIVDPDYPERDFFLEFYKYAFNHVSTIHLQDFFVFKHLHDNSVIPKNSIIVPGHSGDFLGGSHLRKLPIPKSKRDVFNTILIKHYIVNEHIKLSPYVVKKINEYLNSFSEHTLPYSLDDNWNMKERQAKFIVNSNRTYEFFGYRHAIPLWDLELVEFFRRVPLEYKTKEVIYSDALRESVFKDFGVVLSQKDVANTMALEFYHRIFHSMEIFRHIRYFAEKN	not soluble

Sequence	soluble on expression in E. coli
GACDNDTEPGGTAVEKMAGDWWVTVNAFIDGKEVEDPFGAGHLQMSTYNTASNSETEMWLDDLGNFWEYKLKVNVNYAARTFSTTGFVDNVTYESKVKITDGKVLEKAATTPSGMPADSIVYMVQFDDDEDGLTYKVSGFRRTGFPADDF	soluble
GAKPRNLNVSFQGCGMDSLSVRAMDTDTLTQVKEKILEAFCKNVPYSQWPRAEDVDLEWFASSTQSYILRDLDDTSVVEDGRKKLNTLAHYKIPEGASLAMSLIDKKDNTLGRVKDLDTEKYFHLVL	soluble
GAMDAAVAPEERHLSKMQQNGYENPTYKFFEQMQN	soluble
GAMEVIKNPKVFIDPLSVFKEIPFREDILRDAAIAIRYFVKNEVKFSNLFLGLTGTGKTFVSKYIFNEIEEVKKEDEEYKDVKQAYVNCREVGGTPQAVLSSLAGKLTGFSVPKHGINLGEYIDKIKNGTRNIRAIIYLDEVDTLVKRRGGDIVLYQLLRSDANISVIMISNDINVRDYMEPRVLSSLGPSVIFKPYDAEQLKFILSKYAEYGLIKGTYDDEILSYIAAISAKEHGDARKAVNLLFRAAQLASGGGIIRKEHVDKAIVDYEQERLIEAVKALPFHYKLALRSLIESEDVMSAHKMYTDLCNKFKQKPLSYRRFSDIISELDMFGIVKIRIINRGRAGGVKKYALVEDKEKVLRALNETFEDSISIGDFDDVGEN	soluble
GAMGKVTHSIHIEKSDTAADTYGFSLSSVEEDGIRRLYVNSVKETGLASKKGLKAGDEILEINNRAADALNSSMLKDFLSQPSLGLLVRTYPEL	soluble
GANDRYTETKRIVDSHCLHTICSSGRCPNMGECWGKGTATFMIGGDICTRSCKFCNTQTGRPHPLDANEPTHVAESIALMKLDHAVVTSVDRDDLPDLGAGHWAHTIREIKRLNPQTTIEVLIPDFQGRMELVDLVIEANPDIISHNMETVRRISPLVRSAANYDTSLQVIGHIARSGTKSKSGIMVGLGETPQEVETIMDDLLAVGCQILTIGQYLQPTHRHYPVAEYVTPQQFATYKTIGLEKGFSIVESAPLVRSSYHAEKHIR	not soluble
GANETTKQESPVVDTDINAVTNYIVGMCQKFLQKGEKVTPSSKLEELRTREDRLWDCLDTVEFVLDVEEIFDVTVPDEVADNFQTLQEIADFVVSERAKAGKFMKDQ	soluble
GDLLVVTLENITEAKQGEISLNAALHAAEKQERLYNSITNNTPDLVYVFGLDYSFTYANKALLTMWGKTAEEAIGKGLRENGYEEWHAQMHEREIDEIKATKKSIRGTVSFPHAELGSRMYDYILVPVLNESGEVEAIAGTTRD	not soluble
GDVVEAVENAVARVADTIGSGPSNSQAVPALTAVETGHTSQVTPSDTVQTRHVKNYHSRSESSIENFLSRSACVYMGEYHTTNSDQTKLFASWTISARRMVQMRRKLEIFTYVRFDVEVTFVITSKQDQGTQLGQDMPPLTHQIMYIPPGGPIPKSVTDYTWQTSTNPSIFWTEGNAPPRMSIPFISIGNAYSNFYDGWSHFSQNGVYGYNTLNHMGQIYVRHVNGSSPLPMTSTVRMYFKPKHVKAWVPRPPRLCQYKNASTVNFSPTDITDKRNSITYIPDTVKPDVSNH	soluble
GEFPLQTKTDIHAVLASNGRIIYISANSKLHLGYLQGEMIGSFLKTFLHEEDQFLVESYFYNEHHLMPCTFRFIKKDHTIVWVEAAVEIVTTRAERTEREIILKMKVLEEE	soluble
GEIWVYIDHIGEKPNRASFEIMGEARRIADLMDTSLSAVMVGGEATKSLIEETFEYGADKVYFVETKGFDRYDNEVYTRALAKVIKKYKPEAVFFPGTKNARELASTTAIEVDTGLIADCTNFDVDDKGVLLSTRPDFGGKEMSTIICPRHRPVMVTVRAGVFMPLPRVPGRKGELAREEIDDLFTRLKVLDYRVIEKRNI	not soluble
GELPEKSKLQEIYQELTRLKAAVGELPEKSKLQEIYQELTRLKAAVGELPEKSKLQEIYQELTRLKAAVGELPEKSKLQEIYQELTRLKAAVGELPEKSKLQEIYQELTELKAAVGELPEKSKLQEIYQELTQLKAAVGELPDQSKQQQIYQELTDLKTAFERLGHH	soluble
GEPDAQNWQHTVGKDVVAGLTQREIDRQEVINELFVTEASHLRTLRVLDLIFYQRMKKENLMPREELARLFPNLPELIEIHNSWCEAMKKLREEGPIIKEISDLMLARFDGPAREELQQVAAQFCSYQSIALELIKTKQRKESRFQLFMQEAESHPQCRRLQLRDLIISEMQRLTKYPLLLESIIKHTEGGTSEHEKLCRARDQCREILKYVNEAVKQTENRHRLEGYQKRLDATALERASNPLAAEFKSLDLTTRKMIHEGPLTWRISKDKTLDLHVLLLEDLLVLLQKQDEKLLLKCHSKTAVGSSDSKQTFSPVLKLNAVLIRSVATDKRAFFIICTSKLGPPQIYELVALTSSDKNTWMELLEEAVRNATRHPHHHHHH	soluble
GERRIPESRILRREVVEATSAVAAALQIPARAPVIEMTRVRLIDGAPMLAEEIWLPYDRFAAFSRLELDSIGDLLYPVYEAHCNQIVASATETLTVEAIGPAHARLLRIEPGTPAVVIERLAYGYDRRPLEWRRSRGPASEFIYQAEIR	not soluble
GEVDMTIRGNITYSKNEVLEKDEENQVYSYLYQKGYRVDQVKGLIAEGLFADYDDIRTSPKQEFGTVQPGDIKYKDVNGDGVVNDNDKVAIGATTTPNLVYGIGASFAWKGIDVNVHFQGAGKSTFPIYGKCVYAFSESDWGNIFKDMISDRWVDSETAAKLGLHANENPNATYPRLTYGENKNNQQTSTYWMRDGRYIRLKNLDIGYTLPKSIVNKLHFNNIRIYIAGSNLITWSKFKTWDPETGNPRGEAYPLTKSVTMGLSVNL	not soluble
GFRVFIFIILHFVLTNCIREDMSGCPRDDGGLALKFSYDTNADSRLSTAQGVDRLAVFIFDEKGLFISQVNDSMTSINDDYVMELPYKQGSYQFVAWGGYDKSTYQTSECVPRKTYIDDFFLSVKRQEDNQVTNQPKLLYHGMHDIVELNSKEKTIVLINLKQMTNHIRVIAHNLNQDRSDNIYIEDNNGKYGYDSQFSDDDRITYIPIYEASSEQSNPLIADFNVMRLEKDREPWLRIADKTGTIRYDENLIGKLIGGNPNIDFEHNHDFTIEISFDNYIPVIIKINGWEIVNEEI	not soluble
